Measurements taken from the supplement of paper PMC9233669.
Fewer inactive variants are shown than the library holds.

How the values were obtained:
biotinyl-Leu-oxazolone = assay: self-aminoacylation, catalytic enhancement (BLO) (fold over background); higher = more active; k-Seq, kA / k0A0; sequences stand for … in GGGAAUGGAUCCACAUCUACGAAUUC…UUCACUGCAGACUUGACGAAGCUG
Outline: (§1)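 Each biotinyl-aminoacyl-oxazolone, at 2–1250 μM, was incubated with mutagenized RNA pools (0.43 μM) carrying a 21-nt variable region. The 50 μL reactions contained HEPES/NaCl/KCl/MgCl2/CaCl2 buffer with 5% acetonitrile at pH 6.9–7.0 and ran for 90 minutes at room temperature. After streptavidin capture, RNA was measured by qPCR in triplicate and by Illumina sequencing, and catalytic enhancement was calculated as median kA over the uncatalyzed rate from a pseudo-first-order fit of per-sequence fraction reacted.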

biotinyl-Met-oxazolone = assay: self-aminoacylation, catalytic enhancement (BMO) (fold over background); higher = more active; k-Seq, kA / k0A0; sequences stand for … in GGGAAUGGAUCCACAUCUACGAAUUC…UUCACUGCAGACUUGACGAAGCUG
Outline: as §1

biotinyl-Trp-oxazolone = assay: self-aminoacylation, catalytic enhancement (BWO) (fold over background); higher = more active; k-Seq, kA / k0A0; sequences stand for … in GGGAAUGGAUCCACAUCUACGAAUUC…UUCACUGCAGACUUGACGAAGCUG
Outline: as §1

biotinyl-Ile-oxazolone = assay: self-aminoacylation, catalytic enhancement (BIO) (fold over background); higher = more active; k-Seq, kA / k0A0; sequences stand for … in GGGAAUGGAUCCACAUCUACGAAUUC…UUCACUGCAGACUUGACGAAGCUG
Outline: as §1

biotinyl-Phe-oxazolone = assay: self-aminoacylation, catalytic enhancement (BFO) (fold over background); higher = more active; k-Seq, kA / k0A0; sequences stand for … in GGGAAUGGAUCCACAUCUACGAAUUC…UUCACUGCAGACUUGACGAAGCUG
Outline: as §1

biotinyl-Val-oxazolone = assay: self-aminoacylation, catalytic enhancement (BVO) (fold over background); higher = more active; k-Seq, kA / k0A0; sequences stand for … in GGGAAUGGAUCCACAUCUACGAAUUC…UUCACUGCAGACUUGACGAAGCUG
Outline: as §1

CUACUUAAAACUAUCGGUCUG [Fam1A.1 aminoacylation ribozyme variant]
self-aminoacylation (biotinyl-Leu-oxazolone): 0.97
self-aminoacylation (biotinyl-Met-oxazolone): 0.922
self-aminoacylation (biotinyl-Trp-oxazolone): 0.746
self-aminoacylation (biotinyl-Ile-oxazolone): 1.11
self-aminoacylation (biotinyl-Phe-oxazolone): 0.83
self-aminoacylation (biotinyl-Val-oxazolone): 1.06

CUACUUAAGACAAUCGGUCUG [Fam1A.1 aminoacylation ribozyme variant]
self-aminoacylation (biotinyl-Leu-oxazolone): 0.668
self-aminoacylation (biotinyl-Met-oxazolone): 0.909
self-aminoacylation (biotinyl-Trp-oxazolone): 0.71
self-aminoacylation (biotinyl-Ile-oxazolone): 0.775
self-aminoacylation (biotinyl-Phe-oxazolone): 0.817
self-aminoacylation (biotinyl-Val-oxazolone): 0.783

CUACUUCAAAAAAUCGGCCUG [Fam1A.1 aminoacylation ribozyme variant]
self-aminoacylation (biotinyl-Leu-oxazolone): 1.7
self-aminoacylation (biotinyl-Met-oxazolone): 1.73
self-aminoacylation (biotinyl-Trp-oxazolone): 13.1
self-aminoacylation (biotinyl-Ile-oxazolone): 1.9
self-aminoacylation (biotinyl-Phe-oxazolone): 15.3
self-aminoacylation (biotinyl-Val-oxazolone): 1.56

CUACUUCAAAAAAUCGGUCCG [Fam1A.1 aminoacylation ribozyme variant]
self-aminoacylation (biotinyl-Leu-oxazolone): 0.761
self-aminoacylation (biotinyl-Met-oxazolone): 0.749
self-aminoacylation (biotinyl-Trp-oxazolone): 1.31
self-aminoacylation (biotinyl-Ile-oxazolone): 0.724
self-aminoacylation (biotinyl-Phe-oxazolone): 1.57
self-aminoacylation (biotinyl-Val-oxazolone): 0.604

CUACUUCAAAAAAUCGUUCUG [Fam1A.1 aminoacylation ribozyme variant]
self-aminoacylation (biotinyl-Leu-oxazolone): 0.57
self-aminoacylation (biotinyl-Met-oxazolone): 0.564
self-aminoacylation (biotinyl-Trp-oxazolone): 0.581
self-aminoacylation (biotinyl-Ile-oxazolone): 0.605
self-aminoacylation (biotinyl-Phe-oxazolone): 1.03
self-aminoacylation (biotinyl-Val-oxazolone): 0.613

CUACUUCAAACAAACGGUCGG [Fam1A.1 aminoacylation ribozyme variant]
self-aminoacylation (biotinyl-Leu-oxazolone): 0.809
self-aminoacylation (biotinyl-Met-oxazolone): 0.726
self-aminoacylation (biotinyl-Trp-oxazolone): 0.585
self-aminoacylation (biotinyl-Ile-oxazolone): 1.05
self-aminoacylation (biotinyl-Phe-oxazolone): 0.694
self-aminoacylation (biotinyl-Val-oxazolone): 0.944

CUACUUCAAACAACCGGUAUG [Fam1A.1 aminoacylation ribozyme variant]
self-aminoacylation (biotinyl-Leu-oxazolone): 0.803
self-aminoacylation (biotinyl-Met-oxazolone): 0.707
self-aminoacylation (biotinyl-Trp-oxazolone): 0.873
self-aminoacylation (biotinyl-Ile-oxazolone): 0.785
self-aminoacylation (biotinyl-Phe-oxazolone): 0.739
self-aminoacylation (biotinyl-Val-oxazolone): 0.805

CUACUUCAAACAACCGGUCGG [Fam1A.1 aminoacylation ribozyme variant]
self-aminoacylation (biotinyl-Leu-oxazolone): 1.24
self-aminoacylation (biotinyl-Met-oxazolone): 1.05
self-aminoacylation (biotinyl-Trp-oxazolone): 0.808
self-aminoacylation (biotinyl-Ile-oxazolone): 0.978
self-aminoacylation (biotinyl-Phe-oxazolone): 1.17
self-aminoacylation (biotinyl-Val-oxazolone): 1.08

CUACUUCAAACAACCUGUCUG [Fam1A.1 aminoacylation ribozyme variant]
self-aminoacylation (biotinyl-Leu-oxazolone): 0.589
self-aminoacylation (biotinyl-Met-oxazolone): 0.52
self-aminoacylation (biotinyl-Trp-oxazolone): 0.325
self-aminoacylation (biotinyl-Ile-oxazolone): 0.74
self-aminoacylation (biotinyl-Phe-oxazolone): 0.494
self-aminoacylation (biotinyl-Val-oxazolone): 0.736

CUACUUCAAACAAGCCGUCUG [Fam1A.1 aminoacylation ribozyme variant]
self-aminoacylation (biotinyl-Leu-oxazolone): 0.872
self-aminoacylation (biotinyl-Met-oxazolone): 0.925
self-aminoacylation (biotinyl-Trp-oxazolone): 0.926
self-aminoacylation (biotinyl-Ile-oxazolone): 0.78
self-aminoacylation (biotinyl-Phe-oxazolone): 0.59
self-aminoacylation (biotinyl-Val-oxazolone): 0.746

CUACUUCAAACAAGCGGGCUG [Fam1A.1 aminoacylation ribozyme variant]
self-aminoacylation (biotinyl-Leu-oxazolone): 1.38
self-aminoacylation (biotinyl-Met-oxazolone): 1.38
self-aminoacylation (biotinyl-Trp-oxazolone): 1.88
self-aminoacylation (biotinyl-Ile-oxazolone): 1.79
self-aminoacylation (biotinyl-Phe-oxazolone): 0.943
self-aminoacylation (biotinyl-Val-oxazolone): 1.41

CUACUUCAAACAAGCGGUUUG [Fam1A.1 aminoacylation ribozyme variant]
self-aminoacylation (biotinyl-Leu-oxazolone): 0.705
self-aminoacylation (biotinyl-Met-oxazolone): 0.637
self-aminoacylation (biotinyl-Trp-oxazolone): 0.559
self-aminoacylation (biotinyl-Ile-oxazolone): 0.89
self-aminoacylation (biotinyl-Phe-oxazolone): 0.557
self-aminoacylation (biotinyl-Val-oxazolone): 0.701

CUACUUCAAACAAGGGGUCUG [Fam1A.1 aminoacylation ribozyme variant]
self-aminoacylation (biotinyl-Leu-oxazolone): 0.748
self-aminoacylation (biotinyl-Met-oxazolone): 0.746
self-aminoacylation (biotinyl-Trp-oxazolone): 0.593
self-aminoacylation (biotinyl-Ile-oxazolone): 0.773
self-aminoacylation (biotinyl-Phe-oxazolone): 0.71
self-aminoacylation (biotinyl-Val-oxazolone): 0.801

CUACUUCAAACAAUAGGUCUC [Fam1A.1 aminoacylation ribozyme variant]
self-aminoacylation (biotinyl-Leu-oxazolone): 0.493
self-aminoacylation (biotinyl-Met-oxazolone): 0.535
self-aminoacylation (biotinyl-Trp-oxazolone): 0.459
self-aminoacylation (biotinyl-Ile-oxazolone): 0.666
self-aminoacylation (biotinyl-Phe-oxazolone): 1.03
self-aminoacylation (biotinyl-Val-oxazolone): 0.657

CUACUUCAAACAAUAGGUCUU [Fam1A.1 aminoacylation ribozyme variant]
self-aminoacylation (biotinyl-Leu-oxazolone): 0.827
self-aminoacylation (biotinyl-Met-oxazolone): 0.75
self-aminoacylation (biotinyl-Trp-oxazolone): 0.538
self-aminoacylation (biotinyl-Ile-oxazolone): 0.947
self-aminoacylation (biotinyl-Phe-oxazolone): 0.985
self-aminoacylation (biotinyl-Val-oxazolone): 0.828

CUACUUCAAACAAUCAGCCUG [Fam1A.1 aminoacylation ribozyme variant]
self-aminoacylation (biotinyl-Leu-oxazolone): 1.01
self-aminoacylation (biotinyl-Met-oxazolone): 0.824
self-aminoacylation (biotinyl-Trp-oxazolone): 9.56
self-aminoacylation (biotinyl-Ile-oxazolone): 0.99
self-aminoacylation (biotinyl-Phe-oxazolone): 21
self-aminoacylation (biotinyl-Val-oxazolone): 1.17

CUACUUCAAACAAUCAGUCCG [Fam1A.1 aminoacylation ribozyme variant]
self-aminoacylation (biotinyl-Leu-oxazolone): 0.623
self-aminoacylation (biotinyl-Met-oxazolone): 0.753
self-aminoacylation (biotinyl-Trp-oxazolone): 4.05
self-aminoacylation (biotinyl-Ile-oxazolone): 0.632
self-aminoacylation (biotinyl-Phe-oxazolone): 10.8
self-aminoacylation (biotinyl-Val-oxazolone): 0.783

CUACUUCAAACAAUCAUUCUG [Fam1A.1 aminoacylation ribozyme variant]
self-aminoacylation (biotinyl-Leu-oxazolone): 0.513
self-aminoacylation (biotinyl-Met-oxazolone): 0.488
self-aminoacylation (biotinyl-Trp-oxazolone): 1.55
self-aminoacylation (biotinyl-Ile-oxazolone): 0.616
self-aminoacylation (biotinyl-Phe-oxazolone): 3.72
self-aminoacylation (biotinyl-Val-oxazolone): 0.577

CUACUUCAAACAAUCCGUCUU [Fam1A.1 aminoacylation ribozyme variant]
self-aminoacylation (biotinyl-Leu-oxazolone): 0.802
self-aminoacylation (biotinyl-Met-oxazolone): 0.764
self-aminoacylation (biotinyl-Trp-oxazolone): 0.691
self-aminoacylation (biotinyl-Ile-oxazolone): 0.814
self-aminoacylation (biotinyl-Phe-oxazolone): 0.785
self-aminoacylation (biotinyl-Val-oxazolone): 0.862

CUACUUCAAACAAUCGACCUG [Fam1A.1 aminoacylation ribozyme variant]
self-aminoacylation (biotinyl-Leu-oxazolone): 0.45
self-aminoacylation (biotinyl-Met-oxazolone): 0.545
self-aminoacylation (biotinyl-Trp-oxazolone): 0.661
self-aminoacylation (biotinyl-Ile-oxazolone): 0.608
self-aminoacylation (biotinyl-Phe-oxazolone): 1.6
self-aminoacylation (biotinyl-Val-oxazolone): 0.636

CUACUUCAAACAAUCGAUCGG [Fam1A.1 aminoacylation ribozyme variant]
self-aminoacylation (biotinyl-Leu-oxazolone): 0.721
self-aminoacylation (biotinyl-Met-oxazolone): 0.56
self-aminoacylation (biotinyl-Trp-oxazolone): 0.676
self-aminoacylation (biotinyl-Ile-oxazolone): 0.647
self-aminoacylation (biotinyl-Phe-oxazolone): 0.743
self-aminoacylation (biotinyl-Val-oxazolone): 0.73

CUACUUCAAACAAUCGAUCUG [Fam1A.1 aminoacylation ribozyme variant]
self-aminoacylation (biotinyl-Leu-oxazolone): 0.572
self-aminoacylation (biotinyl-Met-oxazolone): 0.574
self-aminoacylation (biotinyl-Trp-oxazolone): 1.34
self-aminoacylation (biotinyl-Ile-oxazolone): 0.663
self-aminoacylation (biotinyl-Phe-oxazolone): 3.4
self-aminoacylation (biotinyl-Val-oxazolone): 0.693

CUACUUCAAACAAUCGCUCCG [Fam1A.1 aminoacylation ribozyme variant]
self-aminoacylation (biotinyl-Leu-oxazolone): 0.775
self-aminoacylation (biotinyl-Met-oxazolone): 0.713
self-aminoacylation (biotinyl-Trp-oxazolone): 1.02
self-aminoacylation (biotinyl-Ile-oxazolone): 0.768
self-aminoacylation (biotinyl-Phe-oxazolone): 1.08
self-aminoacylation (biotinyl-Val-oxazolone): 0.926

CUACUUCAAACAAUCGGACAG [Fam1A.1 aminoacylation ribozyme variant]
self-aminoacylation (biotinyl-Leu-oxazolone): 0.672
self-aminoacylation (biotinyl-Met-oxazolone): 0.718
self-aminoacylation (biotinyl-Trp-oxazolone): 0.656
self-aminoacylation (biotinyl-Ile-oxazolone): 0.782
self-aminoacylation (biotinyl-Phe-oxazolone): 1.19
self-aminoacylation (biotinyl-Val-oxazolone): 0.709

CUACUUCAAACAAUCGGACUU [Fam1A.1 aminoacylation ribozyme variant]
self-aminoacylation (biotinyl-Leu-oxazolone): 0.665
self-aminoacylation (biotinyl-Met-oxazolone): 0.737
self-aminoacylation (biotinyl-Trp-oxazolone): 1.07
self-aminoacylation (biotinyl-Ile-oxazolone): 0.788
self-aminoacylation (biotinyl-Phe-oxazolone): 1.04
self-aminoacylation (biotinyl-Val-oxazolone): 0.85
